From patent US20050255113A1, “Methods and compositions for inhibiting polypeptide accumulation associated with neurological disorders” (New York State Department of Health and Abgenix, Inc., priority 1999, published 2005)

What was measured:
[1] = system: HD-72Q-GFP protein expression; assay: Immunoblot of HD-72Q-GFP protein expression in co-transfections; assay type: cell-based; conditions: 5:1 co-transfections, 24 hours, different transfection paradigms
Method: Some aggregates are found in 104Q co-transfections (never in 25Q), often in cells not expressing C4 (arrowheads), but in some dually-transfected cells as well (arrow). […] Cell lysates were collected from 5:1 co-transfections (sFv:HD-72Q-GFP) in duplicate at 24 hours (prior to prominent aggregate formation and loss of HD-72Q-GFP to the insoluble compartment) and subjected to SDS-PAGE. The membrane was probed with 1:1000 […] primary antibody (Quantum), stripped and reprobed with 1:500 anti-actin antibody (Sigma). HD-72Q-GFP bands were of similar intensity after detection by HRP-conjugated secondary antibody and chemiluminescence.
The typical intrabody constructs were fused to a C-terminal hemagglutinin (HA) peptide tag to facilitate immunodetection of the protein, while keeping the protein localized to the cytosol. […] The diffuse labeling was also characteristic of the normal length (25Q) construct, with or without intrabody co-transfection (FIG. 15).

[2] = system: N-terminal HD sequence (Nt-HD); assay: ELISA of sFv binding to immobilized GST-fusion proteins / biotinylated Nt-HD peptide; conditions: plates with streptavidin, GST-HD-42Q, GST-HD-65Q, GST-DRPLA-35Q
Method: As described in Example 2, four rounds of selection were performed with decreasing concentrations of antigen at each round (100 nM, 50 nM, 10 nM, 1 nM). After the third round, bacterial clones were screened to isolate those which secreted sFv molecules specific to the N-terminal HD sequence. Screening was performed by ELISA. Bacterial supernatants containing secreted sFv were incubated with either 2% bovine serum albumin (BSA), as negative control, or with 2% BSA containing biotinylated antigen (0.1 μg/well, final concentration) in pre-blocked microtiter plates overnight at 4° C. The mixtures were then transferred to streptavidin-coated (0.1 μg/well, final concentration) microtiter plates. […] Bound IgG was detected with alkaline phosphatase conjugated to goat anti-mouse IgG.
Four rounds of selection were performed with decreasing concentrations of antigen at each round (i.e., 100 nM, 50 nM, 10 nM, 1 nM). […] Bound sFv was detected with α-9E10 IgG followed by alkaline phosphatase conjugated goat anti-mouse IgG.
(§1) To characterize the precise binding properties of the intrabody of the invention, further qualitative and quantitative studies of sFv binding to immobilized antigen were conducted in vitro. […] The kinetics of association and dissociation were determined for the C4 sFv antibody in the BIAcore 2000 (FIG. 11B).

[3] = target: T1, biotinylated HD-peptide (HD peptide (1-17), N-terminal huntingtin) (Homo sapiens, UniProt P42858); assay: Kinetic binding analysis by surface plasmon resonance (BIAcore 2000); conditions: corresponding to the Kd
T1 construct: host or cells: chemical peptide synthesis
Method: A range of concentration (60 to 100 nM) of anti-huntingtin intrabody C4 sFv was used to measure the association rate (kon) on 50 RU of biotinylated-HD peptide bound to a streptavidin sensor chip.
The Kd of purified scFv clone C4 was determined by using surface plasmon resonance in a BIAcore 2000 (Biacore AG, Uppsala, Sweden). In a BIAcore flow cell, approximately 50 resonance units (RU) of biotinylated HD-peptide (250 nM in 1M NaCl and 50 mM NaOH) was coupled to a streptavidin sensor chip, pre-conditioned with three consecutive 1-minute injections of 1 M NaCl in 50 mM NaOH. […] Association was measured under a continuous flow of 5 μl/min with a concentration range from 60 to 100 nM, The kon was determined from a plot of In (dR/dt)/t versus concentration, where R is response and t is time (Karlsson et al., J. Immunol. Methods 145: 229-240 (1991)). The koff was determined from the dissociation part of the sensorgram at the highest concentration of intrabody analyzed by using a flow rate of 20 μl/min. The Kd was calculated as koff/kon.
as §1

[4] = system: DRPLA polypeptide (GFP-DRPLA-35Q, GFP-DRPLA-Q81); assay: Intrabody retargeting specificity in COS-7 cells with DRPLA polypeptide (immunofluorescence); assay type: cell-based; conditions: COS-7 co-transfection
Sequence of DRPLA polypeptide (GFP-DRPLA-35Q, GFP-DRPLA-Q81) (P54259 with tags, fused parts or gaps DUP487-502): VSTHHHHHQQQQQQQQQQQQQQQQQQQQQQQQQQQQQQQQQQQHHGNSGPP
Method: COS 7 cells were grown on cover glass in 6-well plates (10^5 cells/well) and co-transfected at a ratio of 3:1 (sFv to target) with plasmids containing either N-HD-C4 sFv or a negative control sFv (containing an HA tag and SV40 nuclear localization sequence (NLS)) and plasmids containing GFP-targeted fusion proteins using 5 μl SuperFect transfection reagent (QIAGEN). At 24 hours post-transfection, cells were prepared for immunofluorescence as follows: cells were fixed with 4% paraformaldehyde and permeabilized with 0.2% triton-X100. To prevent non-specific binding of secondary antibodies, cells were blocked with 10% normal goat serum in 3% BSA.
The model DRPLA target polypeptide was fused to a GFP domain to track the expression and intracellular localization of the target polypeptide in the transfected cells. In addition, two different intrabodies, one specific to huntingtin, and a second intrabody specific to an unrelated polypeptide, were independently cotransfected with the DRPLA target polypeptide.
FIGS. 13A-F show stably transfected COS-7 cells expressing α-Nt-HD-C4 sFv-HA-NLS which were further transfected with plasmids encoding either the model altered huntingtin polypeptide with 104 glutamine repeats (FIGS. 13B, D, F) or the model altered DRPLA polypeptide with 81 glutamine repeats (FIGS. 13A, C, E). […]

B1: C4 sFv: human single-chain Fv intrabody from phage display, specific for the 17 N-terminal residues of huntingtin; SEQ ID NO: 6 (protein)
scFv: QVQLQESGGGLVQPGGSLRLSCAASGFTFSSYSMSWVRQAPGKGLEWVAVISYDGSNKYYADSVKGRFTISRDNSKNTLYLQMNSLRAEDTAVYYCARDRYFDLWGRGTLVTVSSGGGGSGGGGSGGGGSQSALTQPASVSGSPGQSITISCTGTSSDIGAYNYVSWYQQYPGKAPKLLIYDVSNRPSGISNRFSGSKSGDTASLTISGLQAEDEADYYCSSFANSGPLFGGGTKVTVL
Question: Which results are given for B1?
Answer: HD protein expression level [1]: indistinguishable levels of products; ELISA binding specificity [2]: binds specifically to the N-terminal HD sequence; ELISA binding specificity ([2]; listed as cc-Nt-HD-C4 sFv): reacted preferentially with antigens containing the Nt-HD flanking peptide sequence; binding affinity (Ka) [3]: 1.3e+08 M⁻¹; cellular distribution of GFP-DRPLA-35Q [4]: no change in the cellular distribution of DRPLA polypeptide
